Results as given in the supplement of paper PMC12042874.
± gives the uncertainty stated by the source.

Experiment: amyloid nucleation score (Sup35N fusion, yeast selection) (log enrichment); library NNK2; higher = more nucleation; inactive = no reads after selection
In short: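 Yeast lacking psi expressed peptides of 20 random codons fused to Sup35N, received 100 μM copper sulfate for 24 hours, and were then grown for 7 days at 30°C on medium lacking adenine and uracil. Illumina sequencing of input and output plasmid inserts provided the reads. Nucleation scores are DiMSum log enrichments of output over input, centred on the mode of non-aggregating sequences. Any sequence with under 100 input reads was excluded.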

| Substance | amyloid nucleation score |
| --- | --- |
| CLKAFIWLRRLEGQI | 0.082 ± 1.1 |
| CLKEMVKVCRGWWRANGSGR | 0.433 ± 0.46 |
| CLRGSR | 0.03 ± 0.2 |
| CLRLFTQSGFE | -0.362 ± 0.38 |
| CLSSSSVVALGNRLETWIYA | 2.73 ± 0.086 |
| CLSVCCEDFNRSLTHYASSL | -0.743 ± 0.76 |
| CLVVHFPVCQQAKKDCDFRY | 4.53 ± 0.051 |
| CLVVLISVVPMVGSLFSRCG | inactive |
| CLWSSNSSSIWDIGRYFRR | -1.21 ± 0.31 |
| CLYCVMASQWGCFGLVESVT | 1.73 ± 0.47 |
| CMCENTYNRRIKVRYEWLKW | -0.619 ± 0.21 |
| CMGFLYTNTYCGGILIELFI | inactive |
| CMMLAPLCLSLL | -0.018 ± 1.1 |
| CMSVGGGLHG | 3.13 ± 0.071 |
| CMWGVDQPCLTTLTEAVLKP | 1.96 ± 0.12 |
| CNCDMLFCTTVSFRVLDTEN | 8.295 ± 0.037 |
| CNFEHFFYKVFRFLQWTVYE | -0.153 ± 1.1 |
| CNFSCGPKNQKNSMILWILN | inactive |
| CNHFMTFRWWLVEQAGSMLA | 0.044 ± 1.1 |
| CNLESMQSHFMVLCTFDG | -0.044 ± 0.63 |
| CNRCIQRMRASMTDSVFSGV | -1.35 ± 0.49 |
| CNRLVVLSSCNWYRDVADSL | 0.115 ± 1 |
| CNSSSGHDKIVIGSLFRVFA | -1.42 ± 0.62 |
| CNVSCFVRVVFKWIIS | 2.33 ± 0.24 |
| CNVSSELCYYGMSTYIKNPM | -0.947 ± 0.32 |

| Substance | amyloid nucleation score |
| --- | --- |
| CPFESRIAST | 0.132 ± 0.26 |
| CPGRRTISFYSFSFVFRSMN | inactive |
| CPWSQSRLAYYTCGYYTASS | 0.193 ± 0.5 |
| CQAVRRILCYWTAYDIERAV | 1.16 ± 0.22 |
| CQDSALALGDVFVPDKGVVR | 0.36 ± 0.8 |
| CQMYHKCALVLLAGHQLRRR | 1.19 ± 0.33 |
| CQRTTGALTSGWKPDDIGSV | 0.192 ± 0.46 |
| CQSCYYHNR | -0.77 ± 0.21 |
| CRARNCVRLW | 0.165 ± 0.65 |
| CRCGWKGDSFKISMKMRNWV | 5.36 ± 0.066 |
| CRFIRFHYLGYNLGSHHIYI | -0.902 ± 0.78 |
| CRFKVQQMTMENLAQMLVKG | 1.15 ± 0.68 |
| CRGTQALSYSLS | -0.017 ± 0.76 |
| CRGVNVHDSSW | -0.321 ± 0.22 |
| CRITNSNSL | -0.448 ± 0.28 |
| CRKCFT | 0.717 ± 0.4 |
| CRMHVFVEC | -0.019 ± 0.53 |
| CRSFAVTDLRVYVKF | 2.12 ± 0.12 |
| CRSTGIDIIYYHISFFLYIW | inactive |
| CRVALSVVYHTINEKQWYRV | -0.988 ± 0.28 |
| CRVYMVDWGVVLRFDVRGSS | -0.909 ± 0.78 |
| CRYTASASDPDDTGLIRFNA | 3.75 ± 0.073 |
| CSCDGWVCPCSACIC | 8.708 ± 0.035 |
| CSDCDSRMC | -0.41 ± 0.42 |
| CSHTVFGSVCGFTLFQVH | 4.06 ± 0.13 |

| Substance | amyloid nucleation score |
| --- | --- |
| CSIVVNQARCDGSCNYRKVM | 9.731 ± 0.055 |
| CSLLGNFYILGYWATFMASD | -1.57 ± 0.53 |
| CSLMNNRVHFVWSHRRMSGT | 0.276 ± 1 |
| CSLVAPGTYYYGEWFPGQMS | -0.66 ± 0.29 |
| CSNYFLSEELRHSVEVGSES | 0.463 ± 0.18 |
| CSPYVRSCTGYVEWGSIRTM | 0.06 ± 0.29 |
| CSRLG | -1.39 ± 1.1 |
| CSSYHLEYKCYKHLLWFQSR | -0.306 ± 0.3 |
| CSVWWLWSLRM | 1.13 ± 0.43 |
| CSVYVCQLSLCCSVY | 6.426 ± 0.06 |
| CSYWNVGYREVRMTDDDTMG | -0.975 ± 0.53 |
| CTCFGRVRLQKSIWGKRLIH | -0.383 ± 0.56 |
| CTEGQLN | 0.002 ± 0.55 |
| CTFFTSTPT | 0.343 ± 0.51 |
| CTSASGTSPGWNKRGRNWGD | 5.52 ± 0.095 |
| CTWIYTLTFFARNS | 0.01 ± 0.55 |
| CVECYFRCGLGITEVDTN | inactive |
| CVFASNKRMEGVDKKLRVRN | 0.403 ± 0.62 |
| CVICDNYFILEAVF | -0.771 ± 1.1 |
| CVICHYHLCLRQCIWSG | 5.373 ± 0.033 |
| CVIGADALASG | 0.5 ± 0.38 |
| CVILLVIFMLYIYWFSDMFL | -0.721 ± 0.63 |
| CVMHVRHHYGDI | inactive |
| CVMMLSSFLQRCRRVVLDSR | 0.325 ± 0.56 |
| CVMTRRSTKCFSMSLLSIWL | 6.496 ± 0.056 |

| Substance | amyloid nucleation score |
| --- | --- |
| CVREIYYVFCINSPVIAMDC | 6.149 ± 0.038 |
| CVSSARNIHFNGVVKCVRYR | 2.79 ± 0.054 |
| CVSVGCVESGTMICQLKLSQ | 7.19 ± 0.075 |
| CVVRSSAKRFDCRKFGRASN | 0.599 ± 0.8 |
| CWFHGLWIRGVDNSSVYWMD | -0.466 ± 0.65 |
| CWFMYPSMIDWWSMTSRECF | -0.129 ± 0.18 |
| CWMIQLVVLEWCAHGPRVAN | -0.304 ± 0.41 |
| CWTEY | -0.589 ± 0.3 |
| CYCDSWIMAS | -1.69 ± 0.55 |
| CYCEEMSMNTFKTCINTGAM | 1.04 ± 0.42 |
| CYIFYS | inactive |
| DAFGRIGPNEKLYDGEDECW | 0.902 ± 0.22 |
| DAFWCYVDTLYMNRPSQ | 0.988 ± 0.29 |
| DAMFFKCRMYRAVGRFFREG | 0.02 ± 0.28 |
| DASMQF | 0.797 ± 0.57 |
| DCFFFKSWVSLGKIMLSTFS | -0.997 ± 1.1 |
| DCNVWSSSERKVLSRGTSDF | -0.193 ± 0.31 |
| DCSLELVNRRGSGIVQCAGY | 1.1 ± 0.38 |
| DCWNCIISGSSALCAHVQSV | inactive |
| DCYRPYWKVFIPLVIFGA | -0.076 ± 0.55 |
| DDRELL | -0.32 ± 0.63 |
| DDSFGVAVMKVWEMRGWSAL | 1.16 ± 0.27 |
| DDSMHWFYLLGWIPVGSKGG | inactive |
| DDWVSGEEFGRSRNLNHFPD | -1.56 ± 0.48 |
| DDYTDTCRCDMFRFSEFLTN | -0.534 ± 0.74 |

| Substance | amyloid nucleation score |
| --- | --- |
| DEEGRVSPDVARLVAVICGA | 0.413 ± 0.39 |
| DFCCWCPFCYVSWYEGIVMI | 0.305 ± 1 |
| DFFVLVGYGKVK | 0.595 ± 0.53 |
| DFIEMVLDGCSHGLATVCPT | inactive |
| DFSIQWCTSSINYVLYFAI | -1.89 ± 0.44 |
| DFVPNGCNCINSGWDFRQVD | -1.88 ± 0.64 |
| DFWFSGDFK | -0.778 ± 0.44 |
| DGELVVWFMVMSWWNIKDSK | -0.446 ± 1 |
| DGFRTYIVRWEATVANSLVV | 0.736 ± 0.52 |
| DGFSYDPFSMVSIVVRFVVG | 0.99 ± 0.32 |
| DGFYG | inactive |
| DGKFRRVTLRGPLA | 0.554 ± 0.56 |
| DGPWGSMDTRYNSS | 0.479 ± 0.74 |
| DGSMFGPDVCFYIVSLILPF | 5.03 ± 0.07 |
| DGTAFMARPKETSIPDVSSS | -0.593 ± 0.33 |
| DGTYLQNRRDFNNGSARRGW | 0.984 ± 0.57 |
| DHCDAVNSFEEWLMRGVPYN | -0.06 ± 0.45 |
| DHIVYTLGCWGLRSPFKPLL | 0.026 ± 1.1 |
| DHNGVKSTSHKSSFFMSTGR | 0.056 ± 0.39 |
| DHRVLQWLTAPY | 0.353 ± 0.36 |
| DHSYRRYVVEGLFSVSQNGK | 0.21 ± 0.54 |
| DICVKSRRSRPRV | 0.591 ± 0.51 |
| DIERQAVNRPVGRLGKTEDS | 0.242 ± 0.77 |
| DIFLM | 0.487 ± 0.15 |
| DIIRMGFRPFWQGVCVRLSY | -0.669 ± 0.63 |

| Substance | amyloid nucleation score |
| --- | --- |
| DILGFCLSCMLRVGLFTWGR | inactive |
| DITLFYSDTSCRFSVPCSVD | 0.598 ± 0.46 |
| DKKLIFRWAITVMIRIPART | 1.65 ± 0.48 |
| DKTKE | inactive |
| DKTVIPLCFLHFNRT | -1.35 ± 0.78 |
| DKYNTVRLCP | 0.987 ± 0.5 |
| DLEVLSLGGINFFVVDTFMI | 0.964 ± 0.28 |
| DLGAFRLRR | -2.19 ± 0.54 |
| DLKRLAWMLILSIYNRSTIM | -0.221 ± 1.1 |
| DLRLYILNL | 6.556 ± 0.055 |
| DLRRGSRRWRKYGTGECGLL | 0.43 ± 0.32 |
| DLRSWVFWNTSAYYIFSTDS | -1.32 ± 0.36 |
| DLSCGGRLKMNHYKA | -0.686 ± 0.76 |
| DLSNSIVLLGFDNSQWLRDA | 1.78 ± 0.095 |
| DLSQYDCVNVFALPGWCNNT | 4.35 ± 0.048 |
| DLVSLLSGVFVMFVGLCFEV | -0.733 ± 1.1 |
| DLYMNEASTALGLGRGFLWG | -0.553 ± 1.1 |
| DMCLW | -0.625 ± 0.33 |
| DMMCLLFGAKFNVQTGTHS | 5.231 ± 0.052 |
| DMNEDVGLGNKFC | 0.119 ± 0.54 |
| DMNLRLSEWVDFCSIGLFVK | -0.272 ± 0.35 |
| DMSIRRRI | -0.419 ± 0.32 |
| DMWQGEFKLGPRFSDENSQF | -0.172 ± 1.1 |
| DNCLASVFINVKEFSHLCLW | -0.451 ± 0.79 |
| DNFYCHHVDLFSWMIRADLA | -0.847 ± 0.64 |

| Substance | amyloid nucleation score |
| --- | --- |
| DNGCELPFLFFMFASTVKWS | -0.78 ± 1.1 |
| DNKRWLRIWMKFLKGDMHGL | -0.283 ± 1.1 |
| DNQGSLDNSSLCTVYSGFSV | inactive |
| DNRNCPAHWWASFTMKPGSE | 0.14 ± 0.49 |
| DNSHWI | 0.903 ± 0.47 |
| DNSYVMDLECLICCNFSNTK | 8.201 ± 0.025 |
| DNYITLIAMKGYKTAYSTVS | -0.116 ± 0.61 |
| DRARRVVIIWVYLIDRVNVR | 0.004 ± 1.1 |
| DRAYDVCGRSRRWYQKKLGM | -0.667 ± 0.49 |
| DRHYCQKGEWRKDEDVFPVE | 0.13 ± 1.1 |
| DRINSFLFRETVWQNNWVIS | -0.263 ± 0.79 |
| DRLAILSNFGVVMIPTLRLY | -0.09 ± 0.4 |
| DRLTG | -0.705 ± 1.1 |
| DRMLCWDLGVIKNVLRTRVL | -0.354 ± 0.55 |
| DRMQVRSR | 0.944 ± 0.27 |
| DRPALCSLCSETSVVNTLHL | 5.74 ± 0.064 |
| DRPSCEFEPMFRRWDYSEGA | 0.11 ± 0.23 |
| DRPVCMYNMF | 1.63 ± 0.28 |
| DRRMGLIVPRMSDRTDPFSY | 0.489 ± 0.29 |
| DRYISLCGW | -0.086 ± 0.56 |
| DSASNVW | 0.553 ± 0.37 |
